Molecular target: human full-length alpha-synuclein (human) (UniProt P37840)
Assay: indirect ELISA on coated full-length alpha-synuclein, O.D. 405 nm

EC50 (read off the curve): 6 ng/mL
Substance: Syn1 (antibody)

Source: patent US20250340623A1
